In article doi:10.1101/2022.10.04.510822 (bioRxiv, 2022):

Molecular target: GST-GABARAP (human, UniProt O95166 1-117)
Assay: pull-down

Chain of GST-GABARAP (O95166 whole entry): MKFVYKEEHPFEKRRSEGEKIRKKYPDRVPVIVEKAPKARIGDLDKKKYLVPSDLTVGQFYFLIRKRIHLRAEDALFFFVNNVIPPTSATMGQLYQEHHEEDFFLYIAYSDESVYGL

## KPHKHLPPAALHLIAYYKENKDREDKR [WSTF peptide PP4 (residues 466-492)]
  binding result: binds
